# PMC5663475, “SAV1 promotes Hippo kinase activation through antagonizing the PP2A phosphatase STRIPAK” (eLife, 2017)
# B1: Myc-SAV1 SARAH (residues 321–383) wild type [modified: 35S-methionine labelled; 35S-methionine labelled] [human] / GST-MST2 SARAH (residues 430–491) [human] (parent complex)
# chain 1: ILKWELFQLADLDTYQGMLKLLFMKELEQIVKMYEAYRQALLTELENRKQRQQWYAQQHGKNF
# chain 2: KVPQDGDFDFLKNLSLEELQMRLKALDPMMEREIEELRQRYTAKRQPILDAMDAKKRRQQNF
# Variants of: B1
# Assay: GST pull-down of in vitro translated 35S-labeled Myc-SAV1 SARAH, quantified; read off a plot
row,Variant,ratio to parent
1,chain 1 ILKWELFQLADLDTYQGMLKLLFMKELEQIVKMYEAYRQAALTELENRKQRQQWYAQQHGKNF [chain 1 L41A],~0.01
2,chain 1 ILKWELFQLADLDTYQGMLKLLFMKELEQIVKMYEAYRQALLTELENAKQRQQWYAQQHGKNF [chain 1 R48A],~0.03
3,chain 1 ILKWELFQLADLDTYQGMLKLLFMKELEQIVKMAEAYRQALLTELENRKQRQQWYAQQHGKNF [chain 1 Y34A],~0.36
4,chain 1 ILKWELFQLADLDTYAGMLKLLFMKELEQIVKMYEAYRQALLTELENRKQRQQWYAQQHGKNF [chain 1 Q16A],~0.4
5,chain 1 ILKWELFQLADLDTYQGMLKLLFMKELEQIVKMYEAARQALLTELENRKQRQQWYAQQHGKNF [chain 1 Y37A],~0.04
6,chain 1 ILKWELFQLADLDTYQGMLKLLFMKELEQAVKMYEAYRQALLTELENRKQRQQWYAQQHGKNF [chain 1 I30A],~0.04
7,chain 1 ILKWELFQLADLDTYQGMLKLLFMKEAEQIVKMYEAYRQALLTELENRKQRQQWYAQQHGKNF [chain 1 L27A],~0.7
8,chain 1 ILKWELFQLADLDAYQGMLKLLFMKELEQIVKMYEAYRQALLTELENRKQRQQWYAQQHGKNF [chain 1 T14A],~0.9
9,chain 1 ILKWELFQLADLDTYQGMLKLLFMKELEQIAKMYEAYRQALLTELENRKQRQQWYAQQHGKNF [chain 1 V31A],~0.53
10,chain 1 ILKWELFQLADLDTYQGMLKLLFMKELEQIVKMYEAYAQALLTELENRKQRQQWYAQQHGKNF [chain 1 R38A],~0.03
11,chain 1 ILKWELFQLADLDTYQGMLKLLFMKELEQIVKMYEAYRQALLTEAENRKQRQQWYAQQHGKNF [chain 1 L45A],~0.06
12,chain 1 ILKWELFQLADLDTYQGMLKLLFMKELEQIVKMYEAYRQALATELENRKQRQQWYAQQHGKNF [chain 1 L42A],~0.2
13,chain 1 ILKWELFQLADLDTYQGMLKLLFMKALEQIVKMYEAYRQALLTELENRKQRQQWYAQQHGKNF [chain 1 E26A],~0.02
